From article PMC11959585, “Modular Nanoparticle Platform for Solution-Phase Optical Sensing of Protein–Protein Interactions” (ACS Applied Optical Materials, 2025)

Columns and labels:
Conditions in all cases: both partners purified
[1] = biological target: T1, His-tagged PEX5 (1–113) (UniProt P50542 1-113); assay: solution-phase LSPR peak shift of nanoparticles (UV–vis); binding curve near equilibrium: PEX14 (16–80) titrated onto hPEX5 construct (0.015 μM) immobilised on nanobiosensors (~0.025 nM); 20 mM sodium phosphate, 100 mM NaCl, 0.025 wt % Tween 20, pH 7.9; fit with the Hill–Waud equation
T1 construct: cytosolic peroxisomal targeting protein PEX5, stretch of the intrinsically disordered N-terminal domain, residues 1-113; His-tagged samples were made with the pETM10 vector; also called hPEX5 (1–113); source: E. coli BL21 (DE3), purified (Ni-NTA, SEC); not shown: His6, N-terminal, kept

[2] = biological target: T2, His-tagged PEX5 (110–230) (UniProt P50542 110-230); assay: solution-phase LSPR peak shift of nanoparticles (UV–vis); kinetic: peak position scanned every 20–30 s for 25 min after manual addition of PEX14 to immobilised hPEX5 (PEX14:PEX5 10:1 for 1–113), exponential fit; ka and kd derived from kobs and KD; 20 mM sodium phosphate, 100 mM NaCl, 0.025 wt % Tween 20, pH 7.9
T2 construct: cytosolic peroxisomal targeting protein PEX5, stretch of the intrinsically disordered N-terminal domain, residues 110-230; His-tagged samples were made with the pETM10 vector; also called hPEX5 (110–230); source: E. coli BL21 (DE3), purified (Ni-NTA, SEC); not shown: His6, N-terminal, kept

[3] = biological target: T1, His-tagged PEX5 (1–113); assay: as above

B1: PEX14 (16–80) (domain or fragment, UniProt O75381 16-80, looked up)
chain: TPGSENVLPREPLIATAVKFLQNSRVRQSPLATRRAFLKKKGLTDEEIDMAFQQSGTAADEPSSL
notes: peroxisomal membrane-associated import protein PEX14, globular N-terminal domain, residues 16-80; also called globular N-terminal domain of PEX14; source: E. coli BL21 (DE3), purified (Ni-NTA, TEV cleavage, reverse Ni column, SEC); not shown: His6, N-terminal, cleaved
- Kd [1]: 289 nM
- ka near the first inflection point [2]: 12400 M^–1 s^–1
- kd near the first inflection point [2]: 0.00212 s^–1
- koff [3]: 0.00262 s⁻¹
- kon [3]: 9060 M⁻¹ s⁻¹
